Values quoted from earlier work, collected in PMC6128780.

Molecular target: Fibronectin (Homo sapiens) (UniProt P02751)
Chain of UniProt P02751 (P02751 32-2477): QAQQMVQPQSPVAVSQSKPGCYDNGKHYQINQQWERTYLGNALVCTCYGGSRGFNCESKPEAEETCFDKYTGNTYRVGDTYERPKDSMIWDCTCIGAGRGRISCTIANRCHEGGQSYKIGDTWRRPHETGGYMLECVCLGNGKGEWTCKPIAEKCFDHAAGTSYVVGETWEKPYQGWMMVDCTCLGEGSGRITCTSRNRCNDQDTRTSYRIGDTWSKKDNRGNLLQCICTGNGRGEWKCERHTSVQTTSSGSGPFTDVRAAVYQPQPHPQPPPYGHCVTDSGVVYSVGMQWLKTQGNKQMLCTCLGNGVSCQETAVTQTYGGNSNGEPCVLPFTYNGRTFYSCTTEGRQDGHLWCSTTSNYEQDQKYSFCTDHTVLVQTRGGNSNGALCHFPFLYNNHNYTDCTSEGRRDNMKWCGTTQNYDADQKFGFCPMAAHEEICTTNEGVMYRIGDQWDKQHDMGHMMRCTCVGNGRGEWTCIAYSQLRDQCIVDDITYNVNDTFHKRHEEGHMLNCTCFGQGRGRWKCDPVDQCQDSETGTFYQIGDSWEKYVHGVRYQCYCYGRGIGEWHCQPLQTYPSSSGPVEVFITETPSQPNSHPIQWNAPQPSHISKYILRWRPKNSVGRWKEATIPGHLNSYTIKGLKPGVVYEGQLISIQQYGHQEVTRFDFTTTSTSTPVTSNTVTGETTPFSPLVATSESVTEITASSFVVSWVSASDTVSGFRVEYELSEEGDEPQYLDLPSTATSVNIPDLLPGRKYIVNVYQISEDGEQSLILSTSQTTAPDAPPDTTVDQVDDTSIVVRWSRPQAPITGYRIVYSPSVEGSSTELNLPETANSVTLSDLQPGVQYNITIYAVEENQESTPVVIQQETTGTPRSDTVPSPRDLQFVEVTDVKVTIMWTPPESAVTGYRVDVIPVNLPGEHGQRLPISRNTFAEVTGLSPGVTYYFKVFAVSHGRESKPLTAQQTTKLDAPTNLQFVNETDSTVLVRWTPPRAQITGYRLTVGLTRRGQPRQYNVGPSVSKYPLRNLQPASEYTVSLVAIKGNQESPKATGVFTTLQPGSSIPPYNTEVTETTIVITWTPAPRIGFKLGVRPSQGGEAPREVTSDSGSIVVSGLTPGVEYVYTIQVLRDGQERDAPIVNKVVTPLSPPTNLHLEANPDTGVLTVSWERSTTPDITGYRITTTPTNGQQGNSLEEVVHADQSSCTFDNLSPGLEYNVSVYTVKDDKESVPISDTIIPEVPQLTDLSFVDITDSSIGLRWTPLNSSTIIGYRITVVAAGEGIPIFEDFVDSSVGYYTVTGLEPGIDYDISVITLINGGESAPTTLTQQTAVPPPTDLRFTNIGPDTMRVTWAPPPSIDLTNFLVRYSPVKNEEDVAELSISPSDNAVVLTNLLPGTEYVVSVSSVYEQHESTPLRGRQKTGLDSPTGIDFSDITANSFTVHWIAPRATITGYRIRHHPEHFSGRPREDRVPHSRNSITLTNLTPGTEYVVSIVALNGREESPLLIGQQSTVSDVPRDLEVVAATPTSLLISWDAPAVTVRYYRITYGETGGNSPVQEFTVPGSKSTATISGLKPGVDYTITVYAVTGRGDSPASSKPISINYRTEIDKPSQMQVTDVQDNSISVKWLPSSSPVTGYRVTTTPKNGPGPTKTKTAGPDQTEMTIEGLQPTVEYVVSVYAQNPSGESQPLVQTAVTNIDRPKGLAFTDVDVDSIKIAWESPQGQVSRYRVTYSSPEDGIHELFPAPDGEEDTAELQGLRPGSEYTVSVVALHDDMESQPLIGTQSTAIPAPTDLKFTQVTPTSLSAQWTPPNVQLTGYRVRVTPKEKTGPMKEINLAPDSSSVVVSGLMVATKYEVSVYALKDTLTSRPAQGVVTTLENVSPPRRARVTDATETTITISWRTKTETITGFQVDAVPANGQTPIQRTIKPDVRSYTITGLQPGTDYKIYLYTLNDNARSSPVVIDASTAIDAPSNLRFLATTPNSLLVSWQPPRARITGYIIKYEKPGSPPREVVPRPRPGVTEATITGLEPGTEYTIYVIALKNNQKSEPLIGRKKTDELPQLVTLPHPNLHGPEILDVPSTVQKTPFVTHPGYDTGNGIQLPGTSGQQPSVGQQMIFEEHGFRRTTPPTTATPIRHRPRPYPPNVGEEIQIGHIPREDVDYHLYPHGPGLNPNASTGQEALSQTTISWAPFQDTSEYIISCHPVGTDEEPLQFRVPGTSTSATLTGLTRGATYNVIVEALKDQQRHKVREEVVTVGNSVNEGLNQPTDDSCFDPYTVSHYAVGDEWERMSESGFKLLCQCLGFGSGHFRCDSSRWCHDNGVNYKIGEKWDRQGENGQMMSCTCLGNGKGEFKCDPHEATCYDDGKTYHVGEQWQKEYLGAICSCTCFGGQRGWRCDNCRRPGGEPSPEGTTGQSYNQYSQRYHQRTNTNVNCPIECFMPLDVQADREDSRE

Kd: 0.016 µM
Substance: Carcinoembryonic antigen (CEA) IgV-like N domain (from UniProt P06731)
